From IntAct's records for PubMed 35512704

B1: Speckle-type POZ protein (Homo sapiens), O43791 (parent)
chain: MSRVPSPPPPAEMSSGPVAESWCYTQIKVVKFSYMWTINNFSFCREEMGEVIKSSTFSSGANDKLKWCLRVNPKGLDEESKDYLSLYLLLVSCPKSEVRAKFKFSILNAKGEETKAMESQRAYRFVQGKDWGFKKFIRRDFLLDEANGLLPDDKLTLFCEVSVVQDSVNISGQNTMNMVKVPECRLADELGGLWENSRFTDCCLCVAGQEFQAHKAILAARSPVFSAMFEHEMEESKKNRVEINDVEPEVFKEMMCFIYTGKAPNLDKMADDLLAAADKYALERLKVMCEDALCSNLSVENAAEILILADLHSADQLKTQAVDFINYHASDVLETSGWKSMVVSHPHLVAEAYRSLASAQCPFLGPPRKRLKQS

Variants of: B1
Settings: with brd4_human BRD4, O60885

| effect of a mutation on the interaction | Variant |
| --- | --- |
| disrupting interaction strength | F133L |

Variants of: B1
Settings: with ncoa3_human NCOA3, Q9Y6Q9

| effect of a mutation on the interaction | Variant |
| --- | --- |
| disrupting interaction strength | F133L |

Variants of: B1
Settings: with jun_human JUN

| effect of a mutation on the interaction | Variant |
| --- | --- |
| with no effect | F133L |

Variants of: B1
Settings: with akt1_human AKT1, P31749

| effect of a mutation on the interaction | Variant |
| --- | --- |
| with no effect | F133L |

Variants of: B1
Settings: with alk_human ALK

| effect of a mutation on the interaction | Variant |
| --- | --- |
| with no effect | F133L |

Variants of: B1
Settings: with aph1a_human APH1A

| effect of a mutation on the interaction | Variant |
| --- | --- |
| with no effect | F133L |

Variants of: B1
Settings: with arnt_human ARNT

| effect of a mutation on the interaction | Variant |
| --- | --- |
| with no effect | F133L |

Variants of: B1
Settings: with arc1a_human ARPC1A

| effect of a mutation on the interaction | Variant |
| --- | --- |
| with no effect | F133L |

Variants of: B1
Settings: with arrb2_human ARRB2, P32121

| effect of a mutation on the interaction | Variant |
| --- | --- |
| with no effect | F133L |

Variants of: B1
Settings: with bakor_human ATG14, Q6ZNE5

| effect of a mutation on the interaction | Variant |
| --- | --- |
| with no effect | F133L |

Variants of: B1
Settings: with atm_human ATM

| effect of a mutation on the interaction | Variant |
| --- | --- |
| with no effect | F133L |

Variants of: B1
Settings: with atpb_human ATP5F1B

| effect of a mutation on the interaction | Variant |
| --- | --- |
| with no effect | F133L |

Variants of: B1
Settings: with aurkb_human AURKB

| effect of a mutation on the interaction | Variant |
| --- | --- |
| with no effect | F133L |

Variants of: B1
Settings: with axin2_human AXIN2, Q9Y2T1

| effect of a mutation on the interaction | Variant |
| --- | --- |
| with no effect | F133L |

Variants of: B1
Settings: with za2g_human AZGP1, P25311

| effect of a mutation on the interaction | Variant |
| --- | --- |
| with no effect | F133L |

Variants of: B1
Settings: with bap1_human BAP1, Q92560

| effect of a mutation on the interaction | Variant |
| --- | --- |
| with no effect | F133L |

Variants of: B1
Settings: with bcor_human BCOR

| effect of a mutation on the interaction | Variant |
| --- | --- |
| with no effect | F133L |

Variants of: B1
Settings: with brd4_human BRD4, O60885
Remark: another data set of the same source

| effect of a mutation on the interaction | Variant |
| --- | --- |
| with no effect | F133L |

Variants of: B1
Settings: with baba2_human BABAM2, Q9NXR7

| effect of a mutation on the interaction | Variant |
| --- | --- |
| with no effect | F133L |

Variants of: B1
Settings: with btg1_human BTG1, P62324

| effect of a mutation on the interaction | Variant |
| --- | --- |
| with no effect | F133L |

Variants of: B1
Settings: with btk_human BTK

| effect of a mutation on the interaction | Variant |
| --- | --- |
| with no effect | F133L |

Variants of: B1
Settings: with cblb_human CBLB

| effect of a mutation on the interaction | Variant |
| --- | --- |
| with no effect | F133L |

Variants of: B1
Settings: with ccnd1_human CCND1, P24385

| effect of a mutation on the interaction | Variant |
| --- | --- |
| with no effect | F133L |

Variants of: B1
Settings: with ccnd2_human CCND2, P30279

| effect of a mutation on the interaction | Variant |
| --- | --- |
| with no effect | F133L |

Variants of: B1
Settings: with ccnd3_human CCND3, P30281

| effect of a mutation on the interaction | Variant |
| --- | --- |
| with no effect | F133L |

Variants of: B1
Settings: with cd44_human CD44, P16070

| effect of a mutation on the interaction | Variant |
| --- | --- |
| with no effect | F133L |

Variants of: B1
Settings: with cd79b_human CD79B

| effect of a mutation on the interaction | Variant |
| --- | --- |
| with no effect | F133L |

Variants of: B1
Settings: with cdc27_human CDC27, P30260

| effect of a mutation on the interaction | Variant |
| --- | --- |
| with no effect | F133L |

Variants of: B1
Settings: with cdc73_human CDC73, Q6P1J9

| effect of a mutation on the interaction | Variant |
| --- | --- |
| with no effect | F133L |

Variants of: B1
Settings: with cdk4_human CDK4, P11802

| effect of a mutation on the interaction | Variant |
| --- | --- |
| with no effect | F133L |

Variants of: B1
Settings: with cdk6_human CDK6, Q00534

| effect of a mutation on the interaction | Variant |
| --- | --- |
| with no effect | F133L |

Variants of: B1
Settings: with cdn2c_human CDKN2C

| effect of a mutation on the interaction | Variant |
| --- | --- |
| with no effect | F133L |

Variants of: B1
Settings: with chd1l_human CHD1L

| effect of a mutation on the interaction | Variant |
| --- | --- |
| with no effect | F133L |

Variants of: B1
Settings: with chd2_human CHD2, O14647

| effect of a mutation on the interaction | Variant |
| --- | --- |
| with no effect | F133L |

Variants of: B1
Settings: with chk2_human CHEK2, O96017

| effect of a mutation on the interaction | Variant |
| --- | --- |
| with no effect | F133L |

Variants of: B1
Settings: with ch3l1_human CHI3L1, P36222

| effect of a mutation on the interaction | Variant |
| --- | --- |
| with no effect | F133L |

Variants of: B1
Settings: with csf1r_human CSF1R

| effect of a mutation on the interaction | Variant |
| --- | --- |
| with no effect | F133L |

Variants of: B1
Settings: with ctla4_human CTLA4, P16410

| effect of a mutation on the interaction | Variant |
| --- | --- |
| with no effect | F133L |

Variants of: B1
Settings: with cul3_human CUL3, Q13618

| effect of a mutation on the interaction | Variant |
| --- | --- |
| with no effect | F133L |

Variants of: B1
Settings: with daxx_human DAXX

| effect of a mutation on the interaction | Variant |
| --- | --- |
| with no effect | F133L |

Variants of: B1
Settings: with ddx5_human DDX5, P17844

| effect of a mutation on the interaction | Variant |
| --- | --- |
| with no effect | F133L |

Variants of: B1
Settings: with dll3_human DLL3, Q9NYJ7

| effect of a mutation on the interaction | Variant |
| --- | --- |
| with no effect | F133L |

Variants of: B1
Settings: with duox2_human DUOX2, Q9NRD8

| effect of a mutation on the interaction | Variant |
| --- | --- |
| with no effect | F133L |

Variants of: B1
Settings: with e2f2_human E2F2, Q14209

| effect of a mutation on the interaction | Variant |
| --- | --- |
| with no effect | F133L |

Variants of: B1
Settings: with e2f3_human E2F3, O00716

| effect of a mutation on the interaction | Variant |
| --- | --- |
| with no effect | F133L |

Variants of: B1
Settings: with e2f5_human E2F5, Q15329

| effect of a mutation on the interaction | Variant |
| --- | --- |
| with no effect | F133L |

Variants of: B1
Settings: with e2f6_human E2F6, O75461

| effect of a mutation on the interaction | Variant |
| --- | --- |
| with no effect | F133L |

Variants of: B1
Settings: with e2f8_human E2F8, A0AVK6

| effect of a mutation on the interaction | Variant |
| --- | --- |
| with no effect | F133L |

Variants of: B1
Settings: with if4e_human EIF4E

| effect of a mutation on the interaction | Variant |
| --- | --- |
| with no effect | F133L |

Variants of: B1
Settings: with epha7_human EPHA7, Q15375

| effect of a mutation on the interaction | Variant |
| --- | --- |
| with no effect | F133L |

Variants of: B1
Settings: with ephb1_human EPHB1, P54762

| effect of a mutation on the interaction | Variant |
| --- | --- |
| with no effect | F133L |

Variants of: B1
Settings: with erbb3_human ERBB3, P21860

| effect of a mutation on the interaction | Variant |
| --- | --- |
| with no effect | F133L |

Variants of: B1
Settings: with erbb4_human ERBB4, Q15303

| effect of a mutation on the interaction | Variant |
| --- | --- |
| with no effect | F133L |

Variants of: B1
Settings: with esr1_human ESR1, P03372

| effect of a mutation on the interaction | Variant |
| --- | --- |
| with no effect | F133L |

Variants of: B1
Settings: with etv1_human ETV1, P50549

| effect of a mutation on the interaction | Variant |
| --- | --- |
| with no effect | F133L |

Variants of: B1
Settings: with ezh1_human EZH1, Q92800

| effect of a mutation on the interaction | Variant |
| --- | --- |
| with no effect | F133L |

Variants of: B1
Settings: with ezh2_human EZH2, Q15910

| effect of a mutation on the interaction | Variant |
| --- | --- |
| with no effect | F133L |

Variants of: B1
Settings: with facd2_human FANCD2, Q9BXW9

| effect of a mutation on the interaction | Variant |
| --- | --- |
| with no effect | F133L |

Variants of: B1
Settings: with fgf19_human FGF19, O95750

| effect of a mutation on the interaction | Variant |
| --- | --- |
| with no effect | F133L |

Variants of: B1
Settings: with fgfp1_human FGFBP1, Q14512

| effect of a mutation on the interaction | Variant |
| --- | --- |
| with no effect | F133L |
